The series can be described thus: yeast display, Sf9 membrane polyspecificity reagent, FACS + sequencing; frameworks hold sequencing errors. The gist of the method: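 Nanobodies from a synthetic yeast display library (Saccharomyces cerevisiae BJ5465), induced 36–48 hours with galactose, were stained 1 hour at 4 °C with 10% biotinylated, detergent-solubilized Sf9 membrane reagent, enriched on streptavidin microbeads, then FACS-sorted. Anti-HA (expression) and streptavidin (reagent binding) fluorescence set low and high (top ~1%) gates. Polyreactivity labels come from the gate of origin. Genes were colony-PCR amplified, MiSeq 2 × 250 sequenced and filtered by CDR length.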
On to “QVQLVESGGGLVQAGGSLRLSCAASGRLFKSYAMGWYRQAPGKEREFVAAISTRSSSTYYADSVKGLFTISRDNAKNTVYLQMNSLKPEDTAVYYCAATPRRVSPYGVPYGDVYWGQGTQVTVSS”, for which the “polyreactivity (PSR sort gate)” value is reported as “low polyreactivity”.

As for “QVQLVESGGGLVQAGGSLRLSCAASGRLFPYYDMGWYRQAPGKERELVAAITGNGGSTYYADSVKGRFTISRDNAKNTVYLQMNSLKPEDTAVYYCAVDPYYYGEDYWGQGTQVTVSS”, the “polyreactivity (PSR sort gate)” value was “low polyreactivity”.

Consider “QVQLVESGGGLVQAGGSLRLSCAASGRLFSRNVMGWSRQAPGKERELVAAISSSGSTYADSVKGRFTISRDNEKNTVYLQMNSLKPEDTAVSYCAAVIYLWGQGTQVTVSS”, for which the “polyreactivity (PSR sort gate)” value is reported as “high polyreactivity”.

“QVQLVESGGGLVQAGGSLRLSCAASGRLLPIYAMGWYRQAAGKERELVATISWTSDSTYYADSVKGRFTISRDNAKNTVYLQMNSLKPEDTAFYYCAREYTYNYASTVIYDHWGQGTQVTVSS”: the “polyreactivity (PSR sort gate)” value is “low polyreactivity”.

Consider “QVQLVESGGGLVQAGGSLRLSCAASGRMFRWYAMGWYRPAPGKERELVAAITSGGSTNYADSVKGRFTISRDNAKNTVYLKMNSLKPEDTAVYYCAARWKFPSSFYYWGQGTQVTVSS”, for which the “polyreactivity (PSR sort gate)” value was “high polyreactivity”.

With “QVQLVESGGGLVQAGGSLRLSCAASGRMFWSNAMGWYIQAPGKERELFAAIRNTGSTNYADSVKGRFTISRDNAKNTVYLQMNSLKPEDTAVYYCAAYKGSSKYDYWGQGTQVTVSS”, the “polyreactivity (PSR sort gate)” value is on record as “high polyreactivity”.

As for “QVQLVESGGGLVQAGGSLRLSCAASGRNFENNAMGWYRQAPGKERELVAAITSSGGRTYYADSVKGRFTISRDNAKNTVYLQMNSLKPEDTAVYYCAADNFAPEFYYWGQGTQVTVSS”, the “polyreactivity (PSR sort gate)” value is “low polyreactivity”.

As for “QVQLVESGGGLVQAGGSLRLSCAASGRNFGNYAMGGYRQAPGKERELVAAISNGGSTNYADSVKGRVTISRDNAKNTVYFQMNSLKPEDTAVYYCNADQWAVIWGYLVLDFYYWGQGTQVPVSS”, the “polyreactivity (PSR sort gate)” value is given as “low polyreactivity”.

On to “QVQLVESGGGLVQAGGSLRLSCAASGRNFIDYMGWYRQAPGKERELVAAIDSGASTYYADSVKGRFTISRDNAKNTVYLQMNSLNPEDTAVYYCAADVVYDYGGMDYWGQGTLVTVSS”, for which the “polyreactivity (PSR sort gate)” value is recorded as “low polyreactivity”.

Consider “QVQLVESGGGLVQAGGSLRLSCAASGRNFIYNAMGWYRQAPGKERELVAAISRSGGSTNYADSVKGRFTISRDNAKNTVYLQMNSLKPEDTAVYYCAVDSGRYYYYLGFSTRYYWGQGTQVTVSS”, for which the “polyreactivity (PSR sort gate)” value was “high polyreactivity”.

On to “QVQLVESGGGLVQAGGSLRLSCAASGRNFKFYAMGWYRQAPGKERELVAGINTDGGSTYYADSVKGRFTISRDNAKNTVYLQMNSLKPEDTAVYYCNAYYYKPARKYARHYDYWGQGTQVTVSS”, for which the “polyreactivity (PSR sort gate)” value is reported as “low polyreactivity”.

In the case of “QVQLVESGGGLVQAGGSLRLSCAASGRNFKIYTMGWYRQAPGKERELVAAISSSGRTYYADSVKGRFTISRDNAKNTVYLQMNSLKPEDTAVYYCAAVPYTRWKGADGDYWGQGTQVTVSS”, the “polyreactivity (PSR sort gate)” value was “high polyreactivity”.

For “QVQLVESGGGLVQAGGSLRLSCAASGRNFLVYAMGWYRQAPGKERELVAAITYSDGSTYYADSVKGRFTISRDNAKNTVYLQMNSLKPEDTAVYYCAADSSTFPSDYYWGKGTQVTVSS”, the “polyreactivity (PSR sort gate)” value is on record as “low polyreactivity”.

As for “QVQLVESGGGLVQAGGSLRLSCAASGRNFPLNAMGWYRQAPWKERELVAAISIGGSTYYADSVKGRFTISRDNPKNTVYLQMNSLKPDETAVYYCAAVWYTSRQKYDYWGQGTQVTVSS”, the “polyreactivity (PSR sort gate)” value was “low polyreactivity”.

As for “QVQLVESGGGLVQAGGSLRLSCAASGRNFRANAMGWSRQEPGKERELVASITYSGGSTYYADSVKGRFTISRDNAKNTVYVQMNSLKPEDTAVYYCARAGISSGGYYYWGQGTQVTVSS”, the “polyreactivity (PSR sort gate)” value is recorded as “low polyreactivity”.

For “QVQLVESGGGLVQAGGSLRLSCAASGRNFRDYTMGWYRQAPGKERELVAAITSTGDTNYADSVKGRFTISRDNAKNTVYLQMNSLKPEDTAVYYCATQTGEEYQAPLIYDYWGQGTQVTVSS”, the “polyreactivity (PSR sort gate)” value was “low polyreactivity”.

“QVQLVESGGGLVQAGGSLRLSCAASGRNFSYYAMGWYRQAPGKERELVAAISWNGGSTYYADSVKGRFTISRDNAKNTVYLQMNSLKPEDTAVYYCAVLPHYEYDYWGQGTQVTVSS”: the “polyreactivity (PSR sort gate)” value is listed as “high polyreactivity”.

On to “QVQLVESGGGLVQAGGSLRLSCAASGRNFTIYAMGWYRQAPGKERELVATISSNVGSTYYADSVKGRFTISRDNAKNTVYLQMNSLKPEDTAVYYCNVVPYLYGLDGYDYWGQGTQVTVSS”, for which the “polyreactivity (PSR sort gate)” value is listed as “high polyreactivity”.

For the sequence “QVQLVESGGGLVQAGGSLRLSCAASGRNFTSNSMGLYRQAPGKEREFVAAITTSGASTRYADSVKGRFTISRDNAKNTVYLQMNSLKPEDTAVYYCAAEQRRFTGYDYWGQGTQVTVSS”, the “polyreactivity (PSR sort gate)” value was “high polyreactivity”.

For the sequence “QVQLVESGGGLVQAGGSLRLSCAASGRNFVRYTMGWYRQAPGKERELVAAISGSGSSTFYADSVKGRFTISRDNAKNTVYLQMNSLKPEDTAVYYCAARVRRVARDPYDYWGQGTQVTVSS”, the “polyreactivity (PSR sort gate)” value is reported as “high polyreactivity”.

Turning to “QVQLVESGGGLVQAGGSLRLSCAASGRNFVTNAMGWYRQAPGKERELVAAITRGGNTNYADSVKGRFTISRDNAKNTVYLQMNSLKPEDSAVYYCAADTSYYYVYGYFPGYYYWGQGTQVTVSS”, the “polyreactivity (PSR sort gate)” value is “low polyreactivity”.

As to “QVQLVESGGGLVQAGGSLRLSCAASGRNFYLYGMGWYRQAPGKERELVAAIDWSDGSTYYADSVKGRFTISRDNAKNTVYLQMNSLKPEDTAVYYCAADGWAAWLYDYWGQGTQVTVSS”, the “polyreactivity (PSR sort gate)” value is listed as “low polyreactivity”.

On to “QVQLVESGGGLVQAGGSLRLSCAASGRNFYPYAMVWYRQAPGKERELVAAISKSGGRTYYADSVKGRFTISRDNAKNTVDLQMNSLKPEDTAVYYCNAAPGYTYVTYDYWGQGTLVTVSS”, for which the “polyreactivity (PSR sort gate)” value was “high polyreactivity”.

For “QVQLVESGGGLVQAGGSLRLSCAASGRNFYRYAMGRYREAPGKERELVAAIRYSGGRTYYADSVKGRFTISRDNAKNTFYLQMNSLKPEDTAVYYCASDGQWYYAPFRGGDYENDYWGQGTQVTLSS”, the “polyreactivity (PSR sort gate)” value is reported as “low polyreactivity”.

As to “QVQLVESGGGLVQAGGSLRLSCAASGRNFYVYTMGWYRQAPGKERELVAAISWSGGSTHHADSVKGRFTISRDNAKNTVYLQMNSLKPEDTAVYYCNKGVVSRVAFEYWGQGTQVTVSS”, the “polyreactivity (PSR sort gate)” value is “low polyreactivity”.

Consider “QVQLVESGGGLVQAGGSLRLSCAASGRNFYYNAMGWYRPAPGKERELVAAISSGGSTTYADSVKGRFTISRDNAKNTVYLQLNSLKPEDTAVYYCNADISAHYVIGVPTGYYWGQGTQVTVSS”, for which the “polyreactivity (PSR sort gate)” value was “low polyreactivity”.

For the sequence “QVQLVESGGGLVQAGGSLRLSCAASGRNIVGYAMGWYIQAPGKERELVAAITKSGGRTYYADSVKGRFTISRDNAKNTVYLQMNSLKPEDTAVYYCAVLNSKWNEYDYWGQGTQVTVSS”, the “polyreactivity (PSR sort gate)” value is “high polyreactivity”.

For the sequence “QVQLVESGGGLVQAGGSLRLSCAASGRNIYSNAMGWYRQAPGKERELVAAIRWRDGSTYYADSVKGRFTISRDNAKNTVFLQMNSLKPVDTAVYYCAAVYWGEEYEYWGQGTQVTVSS”, the “polyreactivity (PSR sort gate)” value is on record as “low polyreactivity”.

As for “QVQLVESGGGLVQAGGSLRLSCAASGRNLQNYAMGWYRQPPGKERELVAAISFSGGRTNYADSVKGRFTISRDNAKNTVYLQMKSLNPEDTAVYYCAKVYRRSGSVSRYDYWGQGTQVTVSS”, the “polyreactivity (PSR sort gate)” value was “high polyreactivity”.

Consider “QVQLVESGGGLVQAGGSLRLSCAASGRNLVQYTMGWYRQAPGKERELVAVISWRECRTYYADSVKGRFTISRDNAKNTVFLQMNSLKPVDTAVYYCATSGSFWQRYYWGQGTQVTVSS”, for which the “polyreactivity (PSR sort gate)” value is “low polyreactivity”.

On to “QVQLVESGGGLVQAGGSLRLSCAASGRNSLYYTMGWYRQAPGKEREFVAAISSTGGSTYYADSVKGRFTISRDNAKNTVYLLMNSLKPVDTAVYYCNKVYGGGTYDYWGQGTQVTVSS”, for which the “polyreactivity (PSR sort gate)” value is recorded as “low polyreactivity”.

Regarding “QVQLVESGGGLVQAGGSLRLSCAASGRPFSSYAMGWYRQAPGKERELVARINSDGGRTYYADSVKGRFTISRDNAKDTVYLQMNSLKPEDTAVYYCAKRVVRGKVDYWGQGTQVTVSS”, the “polyreactivity (PSR sort gate)” value is “low polyreactivity”.

Regarding “QVQLVESGGGLVQAGGSLRLSCAASGRSFGLYVMGWYRQAPGKERELVAAITGVGSTKYADSVKGRFTISRDNAKNTVYLQMNSLKPEDTEVYYCAKRYLYDRRHAEYWAANDYWGQGTQVTVSS”, the “polyreactivity (PSR sort gate)” value is “low polyreactivity”.

For “QVQLVESGGGLVQAGGSLRLSCAASGRSFRYNTMGWYRQAPGKERELVAAITKGAATTYYADSVKGRFTISRDNAKNTVYLKMTSLKPEDTAVYYCNAVYSRIVTQKYWGQGTQVTVSS”, the “polyreactivity (PSR sort gate)” value was “high polyreactivity”.

With “QVQLVESGGGLVQAGGSLRLSCAASGRSFRYYAMGWYRQAPGKERELVAAISVSGGTTYYADSVKGRFTISRDNAKNTVYLQMNSLKPEDTAVYYCNAYYLAEYDYWGQGTQVTVSS”, the “polyreactivity (PSR sort gate)” value was “high polyreactivity”.

Consider “QVQLVESGGGLVQAGGSLRLSCAASGRSFYLYAMGWYRQAPGKERELVAGITSGGRTNYADSVKGRFTISRDNAKNTVYLQMNSLKPEDTAVYYCAAGSRRYKYDYWGQGTQVTVSS”, for which the “polyreactivity (PSR sort gate)” value is “high polyreactivity”.

For “QVQLVESGGGLVQAGGSLRLSCAASGRTALIYAMGWYRQAPGKERELVAAITASGGNTDYADSVKGRFTISRDNAMNTVYLQMNSLKPEDTAVYYCNKSRYDGGSGYDYWGQGTQVTVSS”, the “polyreactivity (PSR sort gate)” value is “low polyreactivity”.

“QVQLVESGGGLVQAGGSLRLSCAASGRTCGRYAMGWYRQAPGKERELVADISWNGGRTYYADSVKGRFTISRDNAKNTVYLKMNSLKPEDSAVYYCAKRFSPRYYYWGQGTQVTVSS”: the “polyreactivity (PSR sort gate)” value was “high polyreactivity”.

In the case of “QVQLVESGGGLVQAGGSLRLSCAASGRTFAAYAMGWYRQAPGKERELVAAISRGGGRTYYADSVKGRFTISRDNAKNTVYLQMNSLKPEDTAVYYCNAVRPRDNGSWGQGTQVTVSS”, the “polyreactivity (PSR sort gate)” value is recorded as “high polyreactivity”.

As to “QVQLVESGGGLVQAGGSLRLSCAASGRTFAGYAMGWYRQAPGKERELVAAISGSGGRTYYADSVKGRFTISRDYAKNTVYLQMNSLKPEDTAVYYCAASQRVYIARSDYWGQGSQVTVSS”, the “polyreactivity (PSR sort gate)” value was “high polyreactivity”.

“QVQLVESGGGLVQAGGSLRLSCAASGRTFAGYAMGWYRQPPGKERELVAAITSSGGTTYYADSVKGRFTISRDNAKNTVYLQMNILKPEDTAVYSCAADLTWIYRWQTYNYDYWGQGTQVTVSS”: the “polyreactivity (PSR sort gate)” value is given as “high polyreactivity”.

Source of the values: the nanobody polyreactivity screen of Harvey et al. (2022).
